Data set [1] concerns the target MBP-HA-PHD3 (full-length human prolyl hydroxylase domain protein 3) (human) (UniProt Q9H6Z9).
For data set [2] the target is unchanged. This is another data set of the same source.
Substrate in data set [3]: CC[C@H](C)[C@H](NC(=O)[C@H](Cc1ccc(O)cc1)NC(=O)[C@@H]1CCCN1C(=O)[C@H](C)NC(=O)[C@H](CC(C)C)NC(=O)[C@H](CCSC)NC(=O)[C@H](CCC(=O)O)NC(=O)[C@H](CC(C)C)NC(=O)[C@H](CC(=O)O)NC(=O)[C@H](CC(C)C)NC(=O)[C@@H](N)CC(=O)O)C(=O)N1CCC[C@H]1C(=O)N[C@@H](CCSC)C(=O)N[C@@H](CC(=O)O)C(=O)N[C@@H](CC(=O)O)C(=O)N[C@@H](CC(=O)O)C(=O)N[C@@H](Cc1ccccc1)C(=O)N[C@@H](CCC(N)=O)C(=O)N[C@@H](CC(C)C)C(=O)O
Description: purified protein, by the assay type. Conditions: pH 7.0, 37.0 °C.

Substrate in data set [4]: O=C(O)CCC(=O)C(=O)O
Briefly: purified protein, by the assay type. The conditions noted are these: pH 7.0, 37.0 °C.

Setting [5] is: other: PHD3, HIF-1α CODD substrate, This work (Table 2).

This note sets out measurements from publication PMC7961094, “Development of a colorimetric α-ketoglutarate detection assay for prolyl hydroxylase domain (PHD) proteins” (The Journal of Biological Chemistry, 2021).

Values joined by “and” are separate entries in the source; they are usually repeats but may differ in a detail not shown here. Identical values can stand only once.

Consider DLDLEMLAPYIPMDDDFQL [synthetic HIF-1α peptide encompassing the P564 residue (HIF-1α CODD, 19-mer)], for which the Km (app; substrate) of PHD3 for the HIF-1α peptide, initial rates of α-ketoglutarate consumption in the 2,4-DNPH α-KG assay (10 μM PHD3, 37 °C, pH 7.0) in data set [1] came out at 0.024 mM.

With ERIGFPLMIKASEGGGGK [synthetic ACC2 peptide encompassing the P450 residue], the Km of PHD3 for the ACC2 P450 peptide, initial rates of α-ketoglutarate consumption in the 2,4-DNPH α-KG assay (10 μM PHD3) in data set [2] came to 41.2 µM.

B1: PHD2_181-426 (Homo sapiens) (protein)
chain: PNGQTKPLPALKLALEYIVPCMNKHGICVVDDFLGKETGQQIGDEVRALHDTGKFTDGQLVSQKSDSSKDIRGDKITWIEGKEPGCETIGLLMSSMDDLIRHCNGKLGSYKINGRTKAMVACYPGNGTGYVRHVDNPNGDGRCVTCIYYLNKDWDAKVSGGILRIFPEGKAQFADIEPKFDRLLFFWSDRRNPHEVQPAYATRYAITVWYFDADERARAKVKYLTGEKGVRVELNKPSDSVGKDVF
What is called Km is the concentration of substrate that gives half-maximal velocity. Regarding B1, the Km in data set [3] (other: increasing HIF-1α peptide (P564), saturating concentrations of all other reagents, 3 μM PHD2) was 5.2 ± 0.9 µM and 5.192 ± 0.940 µM; in data set [4] (other: increasing α-ketoglutarate, 100 μM peptide substrate, 3 μM PHD2), 12.0 ± 3.0 µM and 11.970 ± 3.006 µM.

B2: PHD3 (Homo sapiens) (protein)
chain: MPLGHIMRLDLEKIALEYIVPCLHEVGFCYLDNFLGEVVGDCVLERVKQLHCTGALRDGQLAGPRAGVSKRHLRGDQITWIGGNEEGCEAISFLLSLIDRLVLYCGSRLGKYYVKERSKAMVACYPGNGTGYVRHVDNPNGDGRCITCIYYLNKNWDAKLHGGILRIFPEGKSFIADVEPIFDRLLFFWSDRRNPHEVQPSYATRYAMTVWYFDAEERAEAKKKFRNLTRKTESALTED
What is called kcat is the number of substrate molecules converted per active site and unit of time at saturation. For orientation: kcat/Km means the second-order rate constant that governs catalysis at low substrate concentration. With B2, the Michaelis constant (Km) in data set [3] (setting [5]) came out at 24.03 ± 5.964 µM; in data set [3] (other: increasing HIF-1α peptide (P564), saturating concentrations of all other reagents, PHD3), 24.0 ± 6.0 µM; in data set [4] (setting [5]), 43.29 ± 7.295 µM; in data set [4] (other: increasing α-ketoglutarate, 100 μM peptide substrate, 10 μM PHD3), 43.3 ± 7.3 µM. In addition, the kcat in data set [3] (setting [5]) came to 0.06062 ± 0.00278 s⁻¹. Moreover, the kcat/Km in data set [3] (setting [5]) stood at 2523 ± 466 M⁻¹ s⁻¹.
